Laboratory results published in patent US11401512.

Tests used:
Experiment in all cases: cell_activity
[1] = tested on: 47898-FLAG ZFN (right, albumin) (synthetic)
[2] = tested on: 71728 ZFN (right, albumin) F3 m5Q; FokI P478S (synthetic)
[3] = tested on: 71557 ZFN (left, albumin) F1 m5Q, F3 m5Q; FokI N542D (synthetic)
[4] = tested on: SBS47171-FLAG ZFN (left, albumin) (synthetic)
[5] = off-target, pair 71557/71728, AAV 600K MOI
[6] = off-target, pair 47171/47898, AAV 600K MOI

“CCTATCCATTGCACTATGCTTTATTTAA (double strand) [albumin right ZFN half-site]” gave an activity ([1]; with 47171, primary human hepatocytes, AAV 600K MOI, day 10) of 25.4 % indels and an activity ([2]; with 71557, primary human hepatocytes, AAV 600K MOI, day 10) of 44.2 % indels.

SMCHD1 off-target site was tested, and the activity [3, 5] was 0.34 % indels, the activity [4, 6] was 0.36 % indels and the activity [1, 6] was 0.36 % indels. For the same substance, the activity [2, 5] was 0.34 % indels.

“TTTGGGATAGTTATGAATTCAATCTTCA (double strand) [albumin left ZFN half-site (A/T allele)]” showed an activity ([3]; with 71728, primary human hepatocytes, AAV 600K MOI, day 10) of 44.2 % indels and an activity ([4]; with 47898, primary human hepatocytes, AAV 600K MOI, day 10) of 25.4 % indels.
